The record followed here is patent US20180057604A1 (Genentech, published 2018).

One may read the Kd as the free concentration of one partner at which half of the binding sites on the other are occupied at equilibrium, for simple one-to-one binding.

T1: cyno TfR extracellular domain (analogous construct to human TfR ecd) (cynomolgus monkey, UniProt Q5RDH6 87-760 (Pongo abelii entry))
T1 construct: also called cynoTfR ecd
T1 chain: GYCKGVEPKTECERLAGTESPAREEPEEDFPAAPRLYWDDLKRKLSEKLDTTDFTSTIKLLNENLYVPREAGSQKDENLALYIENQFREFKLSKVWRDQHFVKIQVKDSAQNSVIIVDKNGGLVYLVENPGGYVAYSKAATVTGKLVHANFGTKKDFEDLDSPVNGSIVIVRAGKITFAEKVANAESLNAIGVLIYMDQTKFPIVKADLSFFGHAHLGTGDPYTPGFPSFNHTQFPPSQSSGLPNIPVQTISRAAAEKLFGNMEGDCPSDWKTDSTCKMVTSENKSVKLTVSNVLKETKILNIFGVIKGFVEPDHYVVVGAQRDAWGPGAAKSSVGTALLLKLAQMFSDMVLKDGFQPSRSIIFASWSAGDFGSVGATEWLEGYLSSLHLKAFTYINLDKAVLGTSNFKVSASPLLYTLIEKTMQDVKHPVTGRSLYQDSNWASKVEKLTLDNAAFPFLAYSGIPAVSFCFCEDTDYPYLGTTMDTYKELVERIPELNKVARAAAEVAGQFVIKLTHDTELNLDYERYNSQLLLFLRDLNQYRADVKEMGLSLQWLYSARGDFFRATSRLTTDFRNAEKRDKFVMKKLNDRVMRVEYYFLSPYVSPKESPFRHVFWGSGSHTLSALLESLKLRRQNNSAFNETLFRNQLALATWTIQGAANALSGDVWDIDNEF

B1: 5260 (antibody, V domains shown)
VH: QVQLVQSGAEVKKPGSSVKVSCKASGGTFSSYAISWVRQAPGQGLEWMGSIIPIFGTANYAQKFQGRVTITADESTSTAYMELSSLRSEDTAVYYCARSGGTKYGMLDVWGQGTMVTVSS
VL: EIVMTQSPATLSVSPGERATLSCRASQSVGSNLAWYQQKPGQAPRLLIYGASTRATGIPARFSGSGSGTEFTLTISSLQSEDFAVYYCQQAVVWPPRTFGGGTKVEIK
notes: anti-BACE1 IgG
B2: 5883 (antibody, V domains shown)
VH: B1 VH with S50G, F55G, T57G
VL: B1 VL with G30S, A91L, V92I, V93L
notes: anti-BACE1 IgG
B3: 5572 (antibody, V domains shown)
VH: B1 VH
VL: B1 VL with A91L, V92Y, V93T
notes: anti-BACE1 IgG
B4: 5571 (antibody, V domains shown)
VH: B1 VH with S50N, M115V
VL: B1 VL with G30S, A91L, V92I, V93L
notes: anti-BACE1 IgG
B5: 5644 (antibody, V domains shown)
VH: QLQLQESGPGLVKPSETLSLTCTVSGGSISSSSYYWGWIRQPPGKGLEWIGSIYYSGSTYYNPSLKSRVTISVDTSKNQFSLKLSSVTAADTAVYYCARVGHGISYFDLWGRGTLVTVSS
VL: EIVLTQSPATLSLSPGERATLSCRASQSVSSYLAWYQQKPGQAPRLLIYDASKRATGIPARFSGSGSGTDFTLTISSLEPEDFAVYYCQQVYTWPPRTFGGGTKVEIK
notes: anti-BACE1 IgG
B6: hu7A4.v13 (antibody, V domains shown)
VH: EVQLVQSGAEVKKPGASVKVSCKGSGYTFTDYAMHWVRQAPGQGLEWMGGISTYFGRTNYNQKFKGRVTMTVDTSISTAYMELSRLRSDDTAVYYCARGLSGNYVMDYWGQGTTVTVSS
VL: DIVMTQSPDSLAVSLGERATINCRASESVDSYGNSFMHWYQQKPGQPPKLLIYRASNLESGVPDRFSGSGSGTDFTLTISSLQAEDVAVYYCQQSNEAPPTFGQGTKLEIK
notes: IgG
B7: hu7A4.v14 (antibody, V domains shown)
VH: B6 VH
VL: B6 VL with V62I
notes: IgG
B8: hu7A4.v7 (antibody, V domains shown)
VH: B6 VH with G24A
VL: B6 VL with V62I, A98G
notes: IgG
B9: hu7A4.v8 (antibody, V domains shown)
VH: B6 VH
VL: B6 VL with V62I, A98G
notes: IgG
B10: hu7A4.v1 (antibody, V domains shown)
VH: B6 VH with G24A, V72R
VL: B6 VL with A98G
notes: IgG
B11: hu7A4.v4 (antibody, V domains shown)
VH: B6 VH
VL: B6 VL with A98G
notes: IgG
B12: hu7A4.v3 (antibody, V domains shown)
VH: B6 VH with G24A
VL: B6 VL with A98G
notes: IgG
B13: hu7A4.v2 (antibody, V domains shown)
VH: B6 VH with V72R
VL: B6 VL with A98G
notes: IgG
B14: hu7A4.v6 (antibody, V domains shown)
VH: B6 VH with V72R
VL: B6 VL with V62I, A98G
notes: IgG
B15: hu15G11.v1 (antibody, V domains shown)
VH: EVQLVQSGAEVKKPGASVKVSCKASGYTFTSYWMHWVRQAPGQRLEWMGEINPTNGRTNYIEKFKSRVTITRDTSASTAYMELSSLRSEDTAVYYCARGTRAYHYWGQGTMVTVSS
VL: DIQMTQSPSSLSASVGDRVTITCRASDNLYSNLAWYQQKPGKAPKLLLYDATNLADGVPSRFSGSGSGTDYTLTISSLQPEDFATYYCQHFWGTPLTFGQGTKVEIK
notes: IgG; HC 48 M, 67 V, 69 I, 71 R, 73 T
B16: hu15G11.v2 (antibody, V domains shown)
VH: B15 VH with R72V
VL: B15 VL
notes: IgG; HC 48 M, 67 V, 69 I, 71 V, 73 T
B17: hu15G11.v3 (antibody, V domains shown)
VH: B15 VH
VL: B15 VL with A43S, L48V
notes: as for B15
B18: hu15G11.v4 (antibody, V domains shown)
VH: B15 VH with R72V
VL: B15 VL with A43S, L48V
notes: as for B16

Substitutions are numbered along the chain they refer to.

T3 sequence (single chain, as listed by the source limits assumed): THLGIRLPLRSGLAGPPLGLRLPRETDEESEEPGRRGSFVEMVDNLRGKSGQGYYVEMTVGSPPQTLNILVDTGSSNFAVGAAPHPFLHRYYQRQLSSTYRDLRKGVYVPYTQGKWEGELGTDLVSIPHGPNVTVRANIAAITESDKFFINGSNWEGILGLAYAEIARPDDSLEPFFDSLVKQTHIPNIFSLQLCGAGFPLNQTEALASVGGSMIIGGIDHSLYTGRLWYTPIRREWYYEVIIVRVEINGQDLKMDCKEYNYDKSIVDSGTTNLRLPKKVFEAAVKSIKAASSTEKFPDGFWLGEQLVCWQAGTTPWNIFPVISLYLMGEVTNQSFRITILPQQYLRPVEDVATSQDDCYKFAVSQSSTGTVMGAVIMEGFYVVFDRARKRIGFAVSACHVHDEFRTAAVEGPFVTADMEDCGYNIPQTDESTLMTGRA
T5 sequence (P56817 22-457 limits assumed): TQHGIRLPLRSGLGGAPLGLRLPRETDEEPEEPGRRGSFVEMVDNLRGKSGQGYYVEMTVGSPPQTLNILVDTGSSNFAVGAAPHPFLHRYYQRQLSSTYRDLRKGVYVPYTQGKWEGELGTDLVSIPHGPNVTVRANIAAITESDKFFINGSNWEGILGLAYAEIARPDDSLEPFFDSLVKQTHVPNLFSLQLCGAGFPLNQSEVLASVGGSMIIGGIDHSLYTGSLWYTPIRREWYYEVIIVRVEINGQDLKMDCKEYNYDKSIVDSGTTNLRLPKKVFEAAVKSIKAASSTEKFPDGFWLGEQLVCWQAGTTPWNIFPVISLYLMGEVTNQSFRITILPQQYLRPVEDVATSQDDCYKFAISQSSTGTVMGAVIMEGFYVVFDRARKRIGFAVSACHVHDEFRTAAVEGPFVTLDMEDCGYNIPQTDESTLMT

One test has as its target murine BACE1 ECD. As to the kind of experiment: cell-based or functional assay.
Take B1: the “% inhibition of BACE1 activity, short FRET substrate” value (from here on “% inhibition of BACE1 activity”) was -35%.

As for B2, the “% inhibition of BACE1 activity” value is -275%.

Take B3: the “% inhibition of BACE1 activity” value was found to be 77%.

On to B4, for which the “% inhibition of BACE1 activity” value was -175%.

B5: the “% inhibition of BACE1 activity” value worked out at 63%.

In the next test the target is human BACE1 ECD. Nature of the test: cell-based or functional assay.
Consider B1, for which the “% inhibition of BACE1 activity” value was -54%.

B2: the “% inhibition of BACE1 activity” value was -129%.

For the molecule B3, the “% inhibition of BACE1 activity” value amounted to 75%.

As to B4, the “% inhibition of BACE1 activity” value was -89%.

For B5, the “% inhibition of BACE1 activity” value was 65%.

A further test deals with T2, human TfR extracellular domain with N-terminal His tag (human, UniProt P02786 89-760).
T2 construct: Biotinylated in some assays; also called huTfR; HuTfR
T2 sequence (P02786 89-760 G142S): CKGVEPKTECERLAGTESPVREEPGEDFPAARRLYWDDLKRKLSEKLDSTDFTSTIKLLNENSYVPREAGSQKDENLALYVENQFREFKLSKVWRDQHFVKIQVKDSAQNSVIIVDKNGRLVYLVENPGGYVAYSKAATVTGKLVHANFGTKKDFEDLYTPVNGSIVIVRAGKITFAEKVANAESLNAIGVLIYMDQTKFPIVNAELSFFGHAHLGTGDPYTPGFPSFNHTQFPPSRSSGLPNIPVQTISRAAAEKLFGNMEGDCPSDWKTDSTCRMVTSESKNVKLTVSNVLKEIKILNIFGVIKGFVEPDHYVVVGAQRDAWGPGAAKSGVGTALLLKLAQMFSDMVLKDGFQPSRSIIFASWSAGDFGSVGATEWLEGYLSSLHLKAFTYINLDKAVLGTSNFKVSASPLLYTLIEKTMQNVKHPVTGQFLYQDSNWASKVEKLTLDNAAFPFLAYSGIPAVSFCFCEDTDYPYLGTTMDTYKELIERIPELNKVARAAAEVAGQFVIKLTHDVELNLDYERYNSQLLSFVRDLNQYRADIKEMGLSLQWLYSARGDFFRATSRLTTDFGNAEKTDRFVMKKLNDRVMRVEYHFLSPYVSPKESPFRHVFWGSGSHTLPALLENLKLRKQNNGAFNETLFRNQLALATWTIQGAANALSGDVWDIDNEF
As to the kind of experiment: SPR, IgG.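 Note: His-tagged TfR captured via immobilized anti-His antibody on a CM5 chip, antibody injected in 3-fold dilution series by single cycle kinetics, 1:1 Langmuir or steady-state fit.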
On to B6, for which the Kd came to 1.36 nM.

In turn, B7 returned a dissociation constant (Kd) of 1.19 nM. The Kd values of the last two molecules are within 1.5-fold of each other.

Regarding B8, binding was characterised by a dissociation constant (Kd) of 0.515 nM.

B9 had a Kd of 1.29 nM.

The target in another test is T1, cyno TfR extracellular domain …. As to the kind of experiment: SPR, IgG.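 Note: His-tagged TfR captured via immobilized anti-His antibody on a CM5 chip, antibody injected in 3-fold dilution series by single cycle kinetics, 1:1 Langmuir or steady-state fit.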 On the technique in general: Surface plasmon resonance follows binding to a sensor surface in real time, without labels.
Regarding B6, the Kd turned out to be 11.4 nM.

The molecule B7 had a Kd of 15.7 nM.

Consider B8, for which the dissociation constant Kd is 1.18 nM. Compared with the last molecule, the Kd is about 13-fold lower.

Another test has as its target BACE1 (HTRF long substrate and FRET short substrate assays of Example 9D). As to the kind of experiment: cell-based or functional assay.
As for B1, the “EC50, FRET short substrate” value turned out to be 36.8 nM and the “EC50, HTRF long substrate” value amounted to 720 nM.

As for B2, the “EC50, FRET short substrate” value is 0.607 nM and the “EC50, HTRF long substrate” value amounted to 5.93 nM.

For the molecule B3, the “EC50, FRET short substrate” value turned out to be 15.9 nM and the “EC50, HTRF long substrate” value was 1.28 nM.

Consider B4, for which the “EC50, FRET short substrate” value is 0.417 nM and the “EC50, HTRF long substrate” value came to 5.06 nM.

B5: the “EC50, FRET short substrate” value was 8.47 nM and the “EC50, HTRF long substrate” value was 8.75 nM.

The next test addresses T3, murine BACE1 ECD.
T3 construct: analyte of the Octet assay (200 nM) and enzyme of the first short substrate assay
Nature of the test: Octet, pH 5.0. In general terms: In BLI a coated tip is dipped into the sample, and binding shifts an interference pattern.
In turn, B1 registered a Kd of 180 nM.

B2: the equilibrium dissociation constant (Kd) stood at 11 nM. Against the preceding molecule, the Kd is about 16-fold lower.

In turn, B3 came in with a Kd of 2 nM. Against the preceding molecule, the Kd is about 5.5-fold lower.

In the case of B4, the equilibrium dissociation constant (Kd) amounted to 8.4 nM.

B5 registered a Kd of 11 nM. The Kd values of the last two molecules are within 1.5-fold of each other.

The target of another test is T4, human BACE1 ECD.
T4 construct: analyte of the Octet assay (200 nM) and enzyme of the first short substrate assay; also called human BACE1 extracellular domain
T4 sequence (single chain, as listed by the source limits assumed): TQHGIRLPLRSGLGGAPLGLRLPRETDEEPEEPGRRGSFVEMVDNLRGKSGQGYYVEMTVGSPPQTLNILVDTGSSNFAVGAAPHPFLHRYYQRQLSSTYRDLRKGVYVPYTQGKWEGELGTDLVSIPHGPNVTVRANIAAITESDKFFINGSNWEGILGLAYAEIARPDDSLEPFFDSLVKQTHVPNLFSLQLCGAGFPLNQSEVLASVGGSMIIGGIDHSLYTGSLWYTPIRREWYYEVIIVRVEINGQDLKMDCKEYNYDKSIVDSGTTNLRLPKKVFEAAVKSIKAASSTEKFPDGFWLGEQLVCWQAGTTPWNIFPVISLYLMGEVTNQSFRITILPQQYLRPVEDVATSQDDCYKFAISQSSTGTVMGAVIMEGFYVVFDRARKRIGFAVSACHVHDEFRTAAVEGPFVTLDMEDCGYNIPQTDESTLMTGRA
As to the kind of experiment: Octet, pH 5.0.
B1 displayed a dissociation constant Kd of 120 nM. In other words, the sub-micromolar range.

Turning to B2, the equilibrium dissociation constant (Kd) amounted to 8.7 nM.

B3: the Kd was 1.5 nM.

Turning to B4, the affinity, expressed as Kd, was 8.2 nM. Against the preceding molecule, the Kd is about 5.5-fold higher.

B5 showed a Kd of 12 nM.

The next test addresses T5, human BACE1 (R&D Systems) (human, UniProt P56817).
T5 construct: recombinant, commercial (R&D Systems)
As to the kind of experiment: SPR (Biacore).
With B1, the Kd worked out at 14.5 nM. This counts as double-digit nanomolar.

As for B2, the affinity, expressed as Kd, was 6.04 nM.

Regarding B3, the Kd was determined as 2.82 nM.

The molecule B4 yielded a dissociation constant (Kd) of 7.31 nM.

Regarding B5, the Kd came to 13.3 nM.

The next test addresses T3, murine BACE1 ECD. As to the kind of experiment: Octet, pH 7.5.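 Note: antibodies captured on anti-human capture biosensor tips, dissociation followed in PBS with BSA buffer, kinetics fitted with a one-to-one binding model.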
For B1, the equilibrium dissociation constant (Kd) was 94 nM.

For the molecule B2, the dissociation constant (Kd) was determined as 6.6 nM. Against the preceding molecule, the Kd is about 14-fold lower.

Turning to B3, the Kd is 2.5 nM. This Kd is about 2.6-fold lower than that of the molecule before.

Regarding B4, the affinity, expressed as Kd, was 5.4 nM.

The molecule B5 registered a Kd of 17 nM.

The next test addresses T4, human BACE1 ECD. Nature of the test: Octet, pH 7.5.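 Note: antibodies captured on anti-human capture biosensor tips, dissociation followed in PBS with BSA buffer, kinetics fitted with a one-to-one binding model.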
Turning to B1, the Kd is 94 nM.

With B2, the affinity, expressed as Kd, was 4.6 nM. Against the preceding molecule, the Kd is about 20-fold lower.

B3 gave a dissociation constant (Kd) of 0.86 nM.

B4 gave a Kd of 5 nM.

With B5, the Kd came to 15 nM. This Kd lies about 3-fold higher than the previous one.

The target in a further test is T2, human TfR extracellular domain with …. As to the kind of experiment: SPR, IgG.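 Note: His-tagged TfR captured via immobilized anti-His antibody on a CM5 chip, antibody injected in 3-fold dilution series by single cycle kinetics, 1:1 Langmuir or steady-state fit.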 This is another data set of the same source.
The molecule B10 came in with a dissociation constant Kd of 0.279 nM.

Consider B11, for which binding was characterised by a dissociation constant (Kd) of 0.612 nM.

Take B12: the dissociation constant (Kd) was 0.543 nM. The Kd values of the last two molecules are within 1.5-fold of each other.

B13 registered a dissociation constant (Kd) of 0.232 nM.

B14 returned an equilibrium dissociation constant (Kd) of 0.26 nM.

B15 registered a Kd of 5.12 nM.

In turn, B16 had a Kd of 9.35 nM.

B17: binding was put at a Kd of 4.12 nM.

In turn, B18 registered a dissociation constant (Kd) of 3.89 nM.

The target of another test is T1, cyno TfR extracellular domain …. Nature of the test: SPR, IgG.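 Note: His-tagged TfR captured via immobilized anti-His antibody on a CM5 chip, antibody injected in 3-fold dilution series by single cycle kinetics, 1:1 Langmuir or steady-state fit.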 The source holds these as a separate data set.
In turn, B10 registered a Kd of 1.67 nM.

B11 displayed an equilibrium dissociation constant (Kd) of 3.83 nM.

With B12, the equilibrium dissociation constant (Kd) amounted to 2.9 nM.

As to B13, the dissociation constant Kd was 1.22 nM.

As to B14, the equilibrium dissociation constant (Kd) is 1.06 nM. This Kd and that of the molecule before are within 1.5-fold of each other.

As to B15, the Kd turned out to be 10.1 nM.

In the case of B16, binding was put at a Kd of 17.6 nM.

As for B17, the affinity, expressed as Kd, was 5.34 nM.

In turn, B18 showed a Kd of 7.04 nM. This Kd and that of the molecule before are within 1.5-fold of each other.

The target of another test is BACE1 in primary mouse cortical neurons (mouse, UniProt P56818 46-501). As to the kind of experiment: cell-based or functional assay.
BACE1 in primary mouse cortical neurons, sequence (P56818 46-501): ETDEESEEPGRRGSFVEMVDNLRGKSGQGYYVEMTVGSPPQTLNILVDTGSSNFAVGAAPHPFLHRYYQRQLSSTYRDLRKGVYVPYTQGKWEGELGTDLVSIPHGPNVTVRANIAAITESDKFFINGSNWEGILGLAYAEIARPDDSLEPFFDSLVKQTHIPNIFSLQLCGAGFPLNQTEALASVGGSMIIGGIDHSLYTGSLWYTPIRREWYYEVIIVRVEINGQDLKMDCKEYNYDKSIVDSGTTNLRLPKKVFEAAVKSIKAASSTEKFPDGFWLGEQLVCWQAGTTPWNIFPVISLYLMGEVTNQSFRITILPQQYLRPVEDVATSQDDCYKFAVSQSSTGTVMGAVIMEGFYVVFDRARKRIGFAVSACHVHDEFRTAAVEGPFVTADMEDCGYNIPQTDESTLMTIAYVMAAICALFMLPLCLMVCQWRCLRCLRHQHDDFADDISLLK
Regarding B1, the “IC50, Abeta x-40 in mouse cortical neurons” value stood at 46.7 nM and the “maximal % inhibition of Abeta x-40” value was determined as 74%.

B2: the “IC50, Abeta x-40 in mouse cortical neurons” value was found to be 9.11 nM and the “maximal % inhibition of Abeta x-40” value stood at 82%.

On to B3, for which the “IC50, Abeta x-40 in mouse cortical neurons” value worked out at 27.1 nM and the “maximal % inhibition of Abeta x-40” value stood at 73%.

Turning to B4, the “IC50, Abeta x-40 in mouse cortical neurons” value was determined as 7.11 nM and the “maximal % inhibition of Abeta x-40” value is 84%.

B5: the “IC50, Abeta x-40 in mouse cortical neurons” value was 8.33 nM and the “maximal % inhibition of Abeta x-40” value came to 72%.
